In the supplement of paper PMC9732359:
± gives the uncertainty stated by the source.

Experiment: protein stability index of a GFP-peptide fusion (yeast GPS) (PSI 1-4); higher = more stable; sorted into four equal gates, so the index is relative within each strain
Outline: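 Each library plasmid carries Cherry plus GFP with a tiled 17-residue yeast protein peptide fused downstream, and the pooled library was carried in yeast. Mid-log cultures in leucine-free medium were sorted into four equal gates by GFP/Cherry ratio. Reads from Illumina sequencing of PCR-amplified plasmids from each gate were assigned to strains by barcodes. Per peptide, the protein stability index was computed as the summed products of gate read frequency and gate number.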

Sequence | protein stability index (doa10∆) | protein stability index (pdr5∆) | protein stability index (san1∆) | protein stability index (ubr1∆)
VERIQKMIEKIEKMSTI [YIL149C/MLP2] | 3.13 ± 0.29 | 3.41 ± 0.14 | 2.81 ± 0.19 | –
VEVCLADLQGSEDHSFR [RPS1A] | 3.44 ± 0.18 | 3.27 ± 0.11 | 3.21 ± 0.17 | 3.25 ± 0.19
VEWNDQVEKLGKKMEAR [RPN9] | – | 3.28 ± 0.15 | 3.29 ± 0.12 | 3.34 ± 0.14
VFGFRANKMRQDRLSDL [SMC4] | – | – | – | 2.74 ± 0.081
VFGISKTSSGSYNYVEN [ITC1] | 3.33 ± 0.083 | 3.12 ± 0.073 | 3.17 ± 0.06 | 3.28 ± 0.041
VFHDPDHSMILPSGVLS [SMC3] | 1.71 ± 0.15 | 2.08 ± 0.089 | 2.04 ± 0.13 | 2 ± 0.047
VFSALKNLISRINTLPQ [ECM29] | 3.06 ± 0.12 | 2.36 ± 0.091 | 1.76 ± 0.22 | 2.71 ± 0.051
VFVKKHHELIKVKHDSQ [SSN2] | 1.32 ± 0.07 | 1.29 ± 0.053 | 1.18 ± 0.095 | 1.35 ± 0.051
VFYAELNEFFTRELAEE [RPS3] | 3.16 ± 0.13 | 3.24 ± 0.16 | 3.26 ± 0.09 | 3.28 ± 0.082
VGACTDEEMTISQKLHD [RRP43] | 3.14 ± 0.1 | 3.04 ± 0.089 | 3.04 ± 0.084 | 3.12 ± 0.059
VGFGESNFTSIIGPNGS [SMC1] | 3.37 ± 0.09 | 3.34 ± 0.078 | 3.15 ± 0.047 | 3.07 ± 0.054
VGGCKDQIEKLREVVEL [RPT1] | 3.37 ± 0.071 | 3.4 ± 0.063 | 3.4 ± 0.048 | 3.33 ± 0.061
VGLKNYDPQRDKRFSGS [RPL1A] | 3.23 ± 0.082 | 3.48 ± 0.1 | 3 ± 0.096 | 3.25 ± 0.061
VGLVSPSFMLKHHQLFY [RPN1] | 1.64 ± 0.079 | 1.7 ± 0.083 | 1.32 ± 0.16 | 1.4 ± 0.062
VGPSEQNFAEEDDSSNS [REC8] | 2.56 ± 0.15 | 2.62 ± 0.11 | – | –
VGRQDPKKHLSETADET [RPN11] | 3.17 ± 0.078 | 2.96 ± 0.09 | 3.51 ± 0.066 | 2.92 ± 0.078
VGVDQLSIELEGGKNQA [YJL039C/NUP192] | 3.08 ± 0.27 | 3.23 ± 0.16 | 3.06 ± 0.076 | 2.46 ± 0.14
VGVIIFILTIATAFLGY [COB] | 2.31 ± 0.07 | 1.84 ± 0.052 | 1.82 ± 0.072 | 2.63 ± 0.039
VHDKVLEDMVFPTEIVG [RPS7B] | 2.63 ± 0.13 | 2.83 ± 0.08 | 2.56 ± 0.083 | 3.06 ± 0.054
VHDLNKYKSNTNNMEKI [SMC2] | 3.46 ± 0.17 | 3.58 ± 0.14 | 3.02 ± 0.15 | 3.47 ± 0.24
VHELSKRVHTLLTLIVR [ISW2] | 1.34 ± 0.091 | 1.44 ± 0.064 | 1.96 ± 0.16 | 1.37 ± 0.041
VHNTNSFIISSLDTLEL [NUT1] | 2 ± 0.076 | 2.34 ± 0.067 | 1.99 ± 0.086 | 2.54 ± 0.07
VHPDYLYGAITEDRYNE [FAS2] | 1.08 ± 0.092 | 1.34 ± 0.097 | 1.14 ± 0.15 | 1.27 ± 0.086
VHPIPDVAFADGGKTLR [YMR129W/POM152] | 2.5 ± 0.064 | 2.68 ± 0.086 | 2.66 ± 0.084 | 2.63 ± 0.051
VIAKLNHNQFECKGCDN [RPB2] | 2.93 ± 0.054 | 3.14 ± 0.067 | 3 ± 0.05 | 3.01 ± 0.097

Sequence | protein stability index (doa10∆) | protein stability index (pdr5∆) | protein stability index (san1∆) | protein stability index (ubr1∆)
VIEQCYLKFIPLKRAIW [SRB8] | 1.5 ± 0.053 | 1.69 ± 0.059 | 1.4 ± 0.099 | 1.32 ± 0.042
VIGGNSLFHIVVDTEET [SMC3] | 2.73 ± 0.099 | 2.78 ± 0.091 | 2.54 ± 0.076 | 2.53 ± 0.06
VILFDSDWNPQADLQAM [ISW2] | 3.12 ± 0.088 | 2.38 ± 0.08 | 2.84 ± 0.11 | 2.15 ± 0.057
VILKQILQILDQDELVQ [SWP82] | 2.54 ± 0.051 | 2.52 ± 0.082 | 2.57 ± 0.063 | 2.5 ± 0.06
VINKLDRLILDLKLPPM [SNU114] | 2.05 ± 0.12 | 1.31 ± 0.12 | 1.06 ± 0.23 | 2.14 ± 0.1
VINPQQLLKGLSLSFSK [DSN1] | 3.2 ± 0.11 | 3.1 ± 0.089 | 2.54 ± 0.086 | 3.12 ± 0.1
VIPIRRGYWGTNLGQPH [RPS2] | 2.04 ± 0.074 | 1.67 ± 0.11 | 1.91 ± 0.18 | 1.79 ± 0.13
VIQIVTGIFMAMHYSSN [COB] | 1.32 ± 0.078 | 1.16 ± 0.069 | 1.33 ± 0.17 | 1.46 ± 0.088
VIRMVVLTAAGVERLIF [PRE3] | 2.33 ± 0.17 | 2.99 ± 0.13 | 2.42 ± 0.13 | 3.17 ± 0.14
VITIKSRIRVKIEGCIS [RPB7] | 2.04 ± 0.082 | 2.13 ± 0.056 | 1.88 ± 0.081 | 2.07 ± 0.064
VIVLSNISHLLEIASSI [SWI1] | 2.35 ± 0.059 | 1.67 ± 0.063 | 2.07 ± 0.082 | 1.8 ± 0.041
VIVPLSTLSNWSSEFAK [SNF2] | 2.65 ± 0.049 | 2.35 ± 0.06 | 2.52 ± 0.051 | 2.6 ± 0.038
VKEQTEAAKKSEKKAKK [RPL34A] | 3.36 ± 0.13 | 3.48 ± 0.094 | 3.18 ± 0.038 | 3.31 ± 0.067
VKGTNISEKDLVPKRCL [RPO31] | 2.63 ± 0.12 | 3.39 ± 0.13 | 3.42 ± 0.082 | 3.12 ± 0.09
VKKLEIQQHARYDCSFC [RPL43A] | 2.73 ± 0.11 | 2.87 ± 0.092 | 2.96 ± 0.068 | 3.3 ± 0.092
VKKVIEINPFLLGTMAG [PRE2] | 1.37 ± 0.14 | 1.86 ± 0.18 | 1.38 ± 0.28 | –
VKPISIEAPQFYRYWSA [SWI3] | 2.23 ± 0.036 | 2.09 ± 0.036 | 1.85 ± 0.055 | 2.02 ± 0.032
VKQIAPAELEGLLDLER [FAS2] | 3.11 ± 0.3 | – | – | –
VKQVLLSVEIGVLTDIS [NUT1] | 1.16 ± 0.063 | 1.47 ± 0.056 | 1.37 ± 0.18 | 1.64 ± 0.066
VKWQYDPNNPVDFDGLD [SNF12] | 2.74 ± 0.062 | 3.02 ± 0.053 | 2.25 ± 0.07 | 2.87 ± 0.03
VLCNSNISKSRAKPVTN [RRP6] | 2.3 ± 0.083 | 2.67 ± 0.096 | 2.09 ± 0.11 | 2.14 ± 0.067
VLDVDPKYAKQKDKSDT [ISW2] | 2.91 ± 0.11 | 3.01 ± 0.069 | 3.05 ± 0.14 | 3.03 ± 0.084
VLEERERGQKVKNVKNS [ARP9] | 2.71 ± 0.19 | 2.25 ± 0.078 | 2.71 ± 0.12 | 1.19 ± 0.074
VLEKYEVIGYIAAGTYG [SSN3] | 1.34 ± 0.088 | 1.55 ± 0.14 | – | 1.28 ± 0.075
VLEQLSGQTPVQSKARY [RPL11A] | 3.2 ± 0.24 | 2.98 ± 0.17 | 2.91 ± 0.077 | 3.15 ± 0.088
